# US20110165660A1, “ENGINEERED MICROORGANISMS WITH ENHANCED FERMENTATION ACTIVITY” (VERDEZYNE, INC., priority 2009, published 2011)
# Values joined by “and” are separate entries in the source; they are usually repeats but may differ in a detail not shown here. Identical values can stand only once.
# B1: Ruminococcus flavefaciens: native xylose isomerase from Ruminococcus flavefaciens strain 17 (SEQ ID NO: 31) (protein, listed as Ruminococcus flavefaciens)
# chain: MEFFSNIGKIQYQGPKSTDPLSFKYYNPEEVINGKTMREHLKFALSWWHTMGGDGTDMFGCGTTDKTWGQSDPAARAKAKVDAAFEIMDKLSIDYYCFHDRDLSPEYGSLKATNDQLDIVTDYIKEKQGDKFKCLWGTAKCFDHPRFMHGAGTSPSADVFAFSAAQIKKALESTVKLGGNGYVFWGGREGYETLLNTNMGLELDNMARLMKMAVEYGRSIGFKGDFYIEPKPKEPTKHQYDFDTATVLGFLRKYGLDKDFKMNIEANHATLAQHTFQHELRVARDNGVFGSIDANQGDVLLGWDTDQFPTNIYDTTMCMYEVIKAGGFTNGGLNFDAKARRGSFTPEDIFYSYIAGMDAFALGFRAALKLIEDGRIDKFVADRYASWNTGIGADIIAGKADFASLEKYALEKGEVTASLSSGRQEMLESIVNNVLFSL
# Experiments:
# [1] = target: T1, Ruminococcus flavefaciens strain 17 (Siijpesteijn 1948) xylose isomerase, native (XI-R), SEQ ID NO: 31 (gene SEQ ID NO: 29/30) (Ruminococcus flavefaciens, UniProt Q9S306); assay: Xylose isomerase kinetics (SDH-coupled, NADH, A340), with and without xylitol; format: biochemical; settings: about 0 to about 50 mM xylitol; pH 7.5, about 30° C.
# T1 construct: made in house; host or cells: Saccharomyces cerevisiae BY4742 (p426GPD); soluble whole cell extract, not purified
# T1 sequence (Q9S306 1-438): B1 chain
# Procedure: (§1) About 20 μg of soluble whole cell extract was incubated in the presence of 100 mM Tris, pH 7.5, 10 mM MgCl2, 0.15 mM NADH (Sigma, St. Louis, Mo.), and about 2 U sorbitol dehydrogenase (Roche) at about 30° C. […] A Beckman DU-800 was utilized with an Enzyme Mechanism software package (Beckman Coulter, Inc.), and the change in the A340 was monitored for 2-3 minutes.
# (§2) Approximately 20 μg of soluble whole cell extract from each transformed cell line, prepared using Y-PER plus reagent as described above, was incubated in a solution containing about 100 mM Tris, pH 7.5, 10 mM MgCl ? 2, 0.15 mM NADH (Sigma, St. Louis, Mo.), and 2 U Sorbitol Dehydrogenase (SDH) (Roche, Indianapolis, Ind.) at about 30° C. […] A Beckman DU-800 spectrophotometer was utilized with an Enzyme Mechanism software package (Beckman Coulter, Inc, Brea, Calif.), and the change in the A340 was monitored for 2-3 minutes. […]
# (§3) Approximately 20 μg of soluble whole cell extract from each transformed cell line was prepared using Y-PER plus reagent as described above was incubated in a solution containing about 100 mM Tris, pH 7.5, 10 mM MgCl ? […] A Beckman DU-800 spectrophotometer was utilized with an Enzyme Mechanism software package (Beckman Coulter, Inc, Brea, Calif.), and the change in the A340 was monitored for 2-3 minutes.
# [2] = target: T2, Piromyces strain E2 xylose isomerase, native (XI-P), SEQ ID NO: 35 (gene SEQ ID NO: 34) (Piromyces sp. E2, UniProt A0ACD6B9F5); assay: as above; format: biochemical; settings: about 0 to about 50 mM xylitol; pH 7.5, about 30° C.
# T2 construct: soluble whole cell extract; SDH-coupled
# T2 sequence (A0ACD6B9F5 1-437): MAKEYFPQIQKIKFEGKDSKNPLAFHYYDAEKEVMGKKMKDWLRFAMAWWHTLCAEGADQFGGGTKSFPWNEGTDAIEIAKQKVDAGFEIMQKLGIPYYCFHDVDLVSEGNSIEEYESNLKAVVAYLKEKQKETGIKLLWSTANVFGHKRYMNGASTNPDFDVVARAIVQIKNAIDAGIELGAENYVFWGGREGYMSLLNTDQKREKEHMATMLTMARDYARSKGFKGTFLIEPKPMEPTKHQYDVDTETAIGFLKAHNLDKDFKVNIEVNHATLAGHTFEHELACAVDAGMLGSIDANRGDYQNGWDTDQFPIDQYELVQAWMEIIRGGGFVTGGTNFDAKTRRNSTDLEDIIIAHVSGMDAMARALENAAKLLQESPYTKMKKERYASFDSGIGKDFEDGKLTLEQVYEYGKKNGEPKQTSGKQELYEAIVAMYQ
# Procedure: as §1, §2, §3
# [3] = system: Ruminococcus flavefaciens FD-1 (Ruminococcus_FD1) xylose isomerase, SEQ ID NO: 110; assay: Kinetics of additional xylose isomerase candidates (Km and specific activity); format: biochemical; settings: xylose 40 to 500 nM; crude S. cerevisiae extract
# Source text: The results are show in FIG. 25.
# [4] = target: T3, Ruminococcus flavefaciens xylose isomerase, codon-optimized gene variant (XI-R-COOP), gene SEQ ID NO: 33 (Ruminococcus flavefaciens, UniProt Q9S306); assay: Xylose isomerase kinetics (SDH-coupled, NADH, A340), with and without xylitol; format: biochemical; settings: xylose about 40 to about 500 mM; pH 7.5, about 30° C.
# T3 sequence (Q9S306 1-438): B1 chain
# Procedure: An additional variant of the native R. flavefaciens xylose isomerase gene (XI-R-COOP) was prepared in which all of the codons were optimized for expression in Saccharomyces cerevisiae. This variant gene was synthesized by IDT DNA Inc. and the sequence is set forth below as SEQ ID NO: 33.
# xylose [5] = assay: Industrial yeast strain BF903 with Ruminococcus xylose isomerase: sealed serum bottles on YP plus xylose (xylose utilization, ethanol, cell growth); format: cell-based, Saccharomyces cerevisiae; settings: FIG. 12
# Procedure: The serum bottles were sealed with a butyl rubber stopper to prevent air exchange. As a result, the cultures became anaerobic once the available oxygen in the serum bottle was utilized. In general, anaerobiosis (e.g., the onset of anaerobic conditions) occurred a few hours after the culture was inoculated. Xylose utilization, ethanol production and cell growth were measured every twenty four hours.
# xylose [6] = assay: In vivo evaluation of xylose isomerase constructs in C5 strain: xylose fermentation, aerobic then anaerobic (ethanol, xylose, glucose, OD600, dry cell weight); format: cell-based, Saccharomyces cerevisiae; settings: final sample at 372 hours
# Source text: The engineered strain was designed to include the following genetic modifications: the native Pho13 gene (alkaline phosphatase specific for p-nitrophenyl phosphate) was disrupted by inserting a construct containing the native TLK1 gene (Transketolase-1); the native aldose reductase gene (Gre3) was disrupted by inserting a construct containing the native high-affinity glucose transporter-7 gene (HXT7); the native glucose-repressible alcohol dehydrogenase II gene (adh2) was disrupted by inserting a construct containing the native xylulokinase gene (XYLK); and the native orotidine-5′ phosphate decarboxylase gene (ura3) was disrupted by inserting a construct containing the native transaldolase 1 gene (TAL1). The resulting strain had the following genotype: pho13::TKL1, gre3::HXT7, adh-2::XYLK, ura3::TAL1.
# The C5 strain was transformed using standard protocols with either p426GPD (as a control) or the chimeric variants XI-R, XI-Rp5, XI-Rp10, or XI-Rp15. The transformed cells were grown on SC-glucose minus uracil initially and then passaged onto SC-xylose minus uracil. Cultures of each of the above constructs were made in SC-xylose minus uracil—and grown for one week. The cultures were grown aerobically at 30° C. with 250 rpm agitation, 1 vvm sparge of process air, 21% O2. The pH was controlled at about 5.0 with 1N NaOH. […] At 24 hours elapsed fermentation time the fermentation was switched to anaerobic conditions. […] Oxygen was purged with 100% N2 sparge at 1 vvm until percent O2 was below 1%. Aeration was then set at 0.25 vvm 100% N2.
# The final sample also measured biomass by dry cell weight.
# xylose [7] = assay: Industrial yeast strain BF903 with Ruminococcus xylose isomerase: aerobic growth and xylose consumption on YP-xylose; format: cell-based, Saccharomyces cerevisiae; settings: commercial yeast strain BF903, YP-xylose, 30° C., 7 days, FIG. 11
# Procedure: A commercially available industrial diploid strain of Saccharomyces cerevisiae (strain BF903; “Stillspirits” triple distilled yeast, Brewcraft, Albany, New Zealand; available at Hydrobrew, Oceanside, Calif.) was obtained and was made competent for transformation using known yeast cell transformation procedures. […] Transformed yeast containing each construct were grown overnight aerobically in a 15 ml culture tube on YPD media containing 2% glucose. After about 24 hours, about 25 ml of YP media containing 2% glucose and 100 μg/ml G418 was seeded with the cells at an initial OD600 of 0.5 in a 250 ml Erlenmeyer flask and grown aerobically at 30° C. The cultures were then passaged once every 7 days into fresh media, also at an initial OD600 of 0.5.
# Measurements were taken of the cell optical density (OD600) to assess cell density and plated onto YPD with 100 μg/ml G418 to ensure that the plasmid was stable. […] The strains were then grown overnight in YPD (with 100 μg/ml G418) and used to inoculate about 50 ml YP-xylose (with 100 μg/ml G418) into disposable 250 ml Erlenmeyer flasks with vented caps at an initial OD600 of about 1. The cultures were allowed to grow aerobically at 30° C. at 200 rpm for 7 days.
# [8] = system: xylose isomerase activity; assay: Heterologous xylose isomerase expression in engineered yeast (active yes/no); settings: xylose isomerase of the donor organism expressed in engineered yeast (S. cerevisiae)
molecule,measurement,setting,value
OC[C@@H](O)[C@H](O)[C@@H](O)CO [xylitol],Ki,[1],43.6 mM
same,Ki,[2],4.79 mM
OC1OC[C@@H](O)[C@H](O)[C@H]1O (some centres unmarked) [xylose],Km,[3],71.9 mM
same,Km,[4],100 mM
B1,cell density versus vector only control,xylose [5],grew to a higher cell density
same,ethanol production from xylose versus vector only control,xylose [5],produced more ethanol
same,Glucose,xylose [6],0 g/L
same,Ethanol,xylose [6]; listed as XI-R,15.65 g/L and 15.5 g/L
same,Xylose,xylose [6]; listed as XI-R,3.14 g/L and 3.85 g/L
same,xylose consumption versus vector control,xylose [7],more efficient at consuming xylose
same,Active? (yes/no),[8],Yes
